# Reference: US20240043519A1 (OHIO STATE INNOVATION FOUNDATION, published 2024)
# Columns and labels:
# [1] = biological target: T1, NOTCH2 (human, UniProt Q04721 26-2471); test: co-immunoprecipitation, THP-1 cells and human AML patient blasts (figure legend)
# T1 construct: whole, on cells; Endogenous protein from cell lysates (co-IP); also called NOTCH2 protein
# Description: (§1) Cell lysate of 10×10⁶ THP-1 cells or 5×10⁶ human AML patient blasts (n=2) were subjected to CO-IP with Protein G Plus/Protein A agarose beads.
# (§2) Cells (1-5×10⁶) were lysed in 400 μl of Pierce Co-Immunoprecipitation lysis buffer (Thermo Scientific) supplemented with protease and phosphatase inhibitors (Roche). Cell lysis was performed on ice for 20 min and the cell lysate was sonicated for 5 sec three times. After centrifugation with 14,000 g at 4° C. for 15 min, the cell lysate supernatant was transferred to new tubes immediately and added to 50% Protein G Plus/Protein A agarose beads (EMD Millipore, Tremecula, CA, USA) with a ratio of 100 μl for a lml sample solution. After incubation with rotation at 4° C. for 1 h, and the mixture was centrifuged at 14,000 g for 10 min at 4° C. The supernatant was transferred to new tubes, added with 2-20 μg antibody and incubated on rotating shaker at 4° C. overnight. After centrifugation, the supernatant was incubated with 50 μl proteinA/G agarose at 4° C. with rotation for 2 h. The agarose beads were washed five times with ice-cold Pierce Co-Immunoprecipitation lysis buffer. Then 20 μl 2×loading buffer was added, boiled for 5 min and subjected to Western blotting. The corresponding normal antibodies were applied as negative control for CO-IP.
# [2] = biological target: T2, NOTCH1 (human, UniProt P46531 19-2555); test: as above
# T2 construct: whole, on cells; Endogenous protein from cell lysates (antibody array, co-IP); also called NOTCH1 protein
# Description: as §1, §2
# T1 sequence (Q04721 26-2471): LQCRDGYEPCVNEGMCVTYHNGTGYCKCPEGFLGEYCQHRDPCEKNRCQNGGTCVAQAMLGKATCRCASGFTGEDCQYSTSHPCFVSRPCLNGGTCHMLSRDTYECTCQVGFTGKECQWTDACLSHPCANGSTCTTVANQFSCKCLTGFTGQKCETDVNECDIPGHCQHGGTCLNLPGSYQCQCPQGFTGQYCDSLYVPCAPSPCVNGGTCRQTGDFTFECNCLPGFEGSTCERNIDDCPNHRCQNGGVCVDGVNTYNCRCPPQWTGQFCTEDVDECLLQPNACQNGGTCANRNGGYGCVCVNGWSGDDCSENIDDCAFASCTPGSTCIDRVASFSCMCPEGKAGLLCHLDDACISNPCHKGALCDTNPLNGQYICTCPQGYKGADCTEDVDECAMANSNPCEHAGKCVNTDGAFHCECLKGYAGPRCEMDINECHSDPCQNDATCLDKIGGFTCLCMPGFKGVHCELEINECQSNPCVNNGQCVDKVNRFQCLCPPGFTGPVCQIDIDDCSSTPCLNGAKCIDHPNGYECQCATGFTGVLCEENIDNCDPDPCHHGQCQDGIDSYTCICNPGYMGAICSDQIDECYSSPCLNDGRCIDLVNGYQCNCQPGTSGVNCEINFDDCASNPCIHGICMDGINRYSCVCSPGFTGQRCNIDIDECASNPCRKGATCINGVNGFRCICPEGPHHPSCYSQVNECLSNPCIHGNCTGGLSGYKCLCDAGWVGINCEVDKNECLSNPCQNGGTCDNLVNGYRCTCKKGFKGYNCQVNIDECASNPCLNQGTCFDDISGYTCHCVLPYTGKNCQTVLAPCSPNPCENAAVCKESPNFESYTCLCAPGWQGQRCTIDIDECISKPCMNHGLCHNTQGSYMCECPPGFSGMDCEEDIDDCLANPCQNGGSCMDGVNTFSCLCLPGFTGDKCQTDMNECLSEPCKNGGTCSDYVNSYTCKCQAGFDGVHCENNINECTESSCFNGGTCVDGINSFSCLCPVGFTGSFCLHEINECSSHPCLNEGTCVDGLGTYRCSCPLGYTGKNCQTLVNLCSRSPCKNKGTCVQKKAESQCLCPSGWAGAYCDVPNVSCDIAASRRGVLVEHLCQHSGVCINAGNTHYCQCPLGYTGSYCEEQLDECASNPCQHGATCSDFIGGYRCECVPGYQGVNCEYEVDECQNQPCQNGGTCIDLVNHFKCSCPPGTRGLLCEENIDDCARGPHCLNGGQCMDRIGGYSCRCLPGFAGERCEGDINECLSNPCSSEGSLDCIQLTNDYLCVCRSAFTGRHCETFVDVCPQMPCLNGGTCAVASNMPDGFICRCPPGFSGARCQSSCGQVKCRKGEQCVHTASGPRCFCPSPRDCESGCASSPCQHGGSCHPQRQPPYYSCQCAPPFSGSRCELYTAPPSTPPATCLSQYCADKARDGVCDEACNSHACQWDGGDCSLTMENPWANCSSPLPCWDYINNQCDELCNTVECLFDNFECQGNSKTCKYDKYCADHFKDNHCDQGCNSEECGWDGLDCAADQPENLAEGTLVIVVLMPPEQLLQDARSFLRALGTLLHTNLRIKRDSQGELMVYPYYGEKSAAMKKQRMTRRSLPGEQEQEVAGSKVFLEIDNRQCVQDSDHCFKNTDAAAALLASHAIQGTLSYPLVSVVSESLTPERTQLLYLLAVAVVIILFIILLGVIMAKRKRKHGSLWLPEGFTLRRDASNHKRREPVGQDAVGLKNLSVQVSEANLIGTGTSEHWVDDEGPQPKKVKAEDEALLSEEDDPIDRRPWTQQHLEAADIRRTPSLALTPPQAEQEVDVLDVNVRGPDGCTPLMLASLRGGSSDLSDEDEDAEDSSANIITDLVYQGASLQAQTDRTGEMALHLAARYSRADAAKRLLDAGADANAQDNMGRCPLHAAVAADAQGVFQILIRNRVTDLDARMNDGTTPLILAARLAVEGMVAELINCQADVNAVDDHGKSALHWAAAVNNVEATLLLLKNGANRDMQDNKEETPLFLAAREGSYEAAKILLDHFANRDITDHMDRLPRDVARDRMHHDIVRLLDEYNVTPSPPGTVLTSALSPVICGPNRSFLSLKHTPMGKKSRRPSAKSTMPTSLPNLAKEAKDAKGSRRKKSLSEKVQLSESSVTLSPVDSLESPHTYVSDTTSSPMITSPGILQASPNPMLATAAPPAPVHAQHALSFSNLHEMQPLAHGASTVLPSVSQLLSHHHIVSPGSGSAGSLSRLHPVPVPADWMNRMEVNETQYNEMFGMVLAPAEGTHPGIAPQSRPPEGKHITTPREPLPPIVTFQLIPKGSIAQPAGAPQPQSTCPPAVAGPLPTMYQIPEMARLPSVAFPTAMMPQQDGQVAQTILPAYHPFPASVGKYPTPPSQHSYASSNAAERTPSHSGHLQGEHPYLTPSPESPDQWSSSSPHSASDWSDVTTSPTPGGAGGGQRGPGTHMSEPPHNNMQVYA
binder,measurement,setting,value
"EGFL7 protein (endogenous, in lysates of human AML cells: Kasumi-1, THP-1, primary AML patient blasts) (ligand, Endogenous protein immunoprecipitated from cell lysates; also called Epidermal growth factor-like domain 7) TEHAYRPGRRVCAVRAHGDPVSESFVQRVYQPFLTTCDGHRACSTYRTIYRTAYRRSPGLAPARPRYACCPGWKRTSGLPGACGAAICQPPCRNGGSCVQPGRCRCPAGWRGDTCQSDVDECSARRGGCPQRCVNTAGSYWCQCWEGHSLSADGTLCVPKGGPPRVAPNPTGVDSAMKEEVQRLQSRVDLLEEKLQLVLAPLHSLASQALEHGLPDPGSLLVHSFQQLGRIDSLSEQISFLEEQLGSCSCKKDS",binding result,[1],binds
same,binding result,[2],binds
